Earlier results on one molecule are cited in publication PMC4540356 (Thrombosis and haemostasis, 2010).

This data set has as its system endothelial cells. The settings on record: via activation of ERK1/2 and Akt, ref [39].

B1: nicotinomide phosphoribosyltransferase/pre-B cell colony-enhancing factor (protein, UniProt P43490 1-491, looked up)
Nicotinamide …: MNPAAEAEFNILLATDSYKVTHYKQYPPNTSKVYSYFECREKKTENSKLRKVKYEETVFYGLQYILNKYLKGKVVTKEKIQEAKDVYKEHFQDDVFNEKGWNYILEKYDGHLPIEIKAVPEGFVIPRGNVLFTVENTDPECYWLTNWIETILVQSWYPITVATNSREQKKILAKYLLETSGNLDGLEYKLHDFGYRGVSSQETAGIGASAHLVNFKGTDTVAGLALIKKYYGTKDPVPGYSVPAAEHSTITAWGKDHEKDAFEHIVTQFSSVPVSVVSDSYDIYNACEKIWGEDLRHLIVSRSTQAPLIIRPDSGNPLDTVLKVLEILGKKFPVTENSKGYKLLPPYLRVIQGDGVDINTLQEIVEGMKQKMWSIENIAFGSGGGLLQKLTRDLLNCSFKCSYVVTNGLGINVFKDPVADPNKRSKKGRLSLHRTPAGNFVTLEEGKGDLEEYGQDLLHTVFKNGKVTKSYSFDEIRKNAQLNIELEAAHH
Turning to B1, the “peNOS and NO induction in endothelial cells” value was “induce peNOS and NO in endothelial cells”.
